This data set can be described thus: protein stability index of a GFP-peptide fusion (GPS, HEK-293T) (PSI 1-6); higher = more stable. The following applies: c terminus: a fixed tail appended.

± gives the standard deviation.
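Note: 24-mer peptide tiles fused after GFP, lentivirally expressed, FACS-sorted into six equal bins by GFP/DsRed ratio, decoded by Illumina sequencing, PSI is the read-weighted mean bin number.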

As for CFRFRQSSGRRVSLHCLLDQFDKD [DENND6A], the protein stability index was 2.5 ± 0.73 (treatment: DMSO) and 2.41 ± 0.53 (treatment: MLN4924 1 uM, 8 h).
As for CGKSFSRSSHLVIHERTHERERLY [ZNF263], the protein stability index was 2.71 ± 0.13 (treatment: DMSO) and 2.86 ± 0.33 (treatment: MLN4924 1 uM, 8 h).
Turning to CIENNIDLQVNRNFSLATNTKYSV [R3HDM1], the protein stability index is, setting by setting: (treatment: DMSO) 2.59 ± 0.24; (treatment: MLN4924 1 uM, 8 h) 2.31 ± 0.43.
As for CNFSIPEELEFQYRRVNELLLSIL [ZER1], the protein stability index worked out at 2.34 ± 0.44 (treatment: DMSO) and 2.32 ± 0.42 (treatment: MLN4924 1 uM, 8 h).
With CPLCTSDRGSCVSTTEGIQLAKEL [RHOBTB3], the protein stability index came to 3.23 ± 0.29 (treatment: DMSO) and 3.58 ± 0.38 (treatment: MLN4924 1 uM, 8 h).
As to CPSPEALSPEPPVYSLQDFDTLAT [PRKX], the protein stability index is, setting by setting: (treatment: DMSO) 4.61 ± 0.26; (treatment: MLN4924 1 uM, 8 h) 4.84 ± 0.053.
CRCVASPPPDAAATAASSSASSPA [SLC25A25] came in with a protein stability index (treatment: DMSO) of 4.52 ± 0.22 and a protein stability index (treatment: MLN4924 1 uM, 8 h) of 4.35 ± 0.29.
CSKSYSRRSFLIEHQRSHTGERPH [ZSCAN9]: the protein stability index (treatment: DMSO) was 3.42 ± 0.073 and the protein stability index (treatment: MLN4924 1 uM, 8 h) was 3.52 ± 0.36.
The corresponding values for CSQYDRVYCGAGVQKEHEEYMKNL [PCMTD2] are 2.93 ± 0.61 and 2.6 ± 0.55.
Sequence CSTNKPEGYRVSQALRENTYPFLA [FAF2] registered a protein stability index (treatment: DMSO) of 2.54 ± 0.2 and a protein stability index (treatment: MLN4924 1 uM, 8 h) of 2.53 ± 0.4.
For the sequence CVDATRETNRLGRLINHSKCGNCQ [KMT5A], the protein stability index by setting is: (treatment: DMSO) 3.48 ± 0.41; (treatment: MLN4924 1 uM, 8 h) 3.84 ± 0.27.
As to CYKGHLEMVRFLLEAGADQEHKTD [ANKRD17], the protein stability index reads like this: (treatment: DMSO) 2.91 ± 0.13; (treatment: MLN4924 1 uM, 8 h) 3.02 ± 0.32.
As to CYLELFPAHLYFQAHGSEGLTFQG [PLEKHN1], the protein stability index is, setting by setting: (treatment: DMSO) 2.89 ± 0.53; (treatment: MLN4924 1 uM, 8 h) 2.31 ± 0.26.
For DAILYYYQSGGRIRRPVNVPIDIF [KCNA3], the protein stability index was found to be 2.2 ± 0.61 (treatment: DMSO) and 2.58 ± 0.76 (treatment: MLN4924 1 uM, 8 h).
The sequence DARMLDHLTKKDLRVHLKMVDSFH [PPFIA4] displayed a protein stability index (treatment: DMSO) of 2.48 ± 0.37 and a protein stability index (treatment: MLN4924 1 uM, 8 h) of 2.78 ± 0.44.
On to DCMLSEEGATLLLRGLCANTVLRF [LRRC45], for which the protein stability index reads like this: (treatment: DMSO) 2.44 ± 0.48; (treatment: MLN4924 1 uM, 8 h) 2.42 ± 0.4.
For the sequence DDFRSKYQTEQSLRLLVESDINSI [KRT34], the protein stability index reads like this: (treatment: DMSO) 3.77 ± 0.098; (treatment: MLN4924 1 uM, 8 h) 3.94 ± 0.27.
DDLRINLWHLAITDRSFNIVDIKP [PPP2R2C]: the protein stability index came to 2.19 ± 0.2 (treatment: DMSO) and 2.17 ± 0.19 (treatment: MLN4924 1 uM, 8 h).
Turning to DDPSLRKTHSSPALSQGHVTGSKT [PSD2], the protein stability index worked out at 5.5 ± 0.32 (treatment: DMSO) and 5.5 ± 0.33 (treatment: MLN4924 1 uM, 8 h).
As to DEHEHPLTSELDPEKEQEIETIKI [MIA2], the protein stability index is 5.33 ± 0.42 (treatment: DMSO) and 5.36 ± 0.42 (treatment: MLN4924 1 uM, 8 h).
The corresponding values for DENLDRMVPISKQPKEKIQAIIES [NOL4L] are 4.88 ± 0.38 and 4.83 ± 0.21.
For the sequence DETGITVASLERFSTYTSDKDENK [ZC3H15], the protein stability index is, setting by setting: (treatment: DMSO) 5.14 ± 0.3; (treatment: MLN4924 1 uM, 8 h) 5.29 ± 0.087.
As to DFTTAAEDQPINLCDKLPPATALG [NOL4L], the protein stability index was found to be 4.83 ± 0.18 (treatment: DMSO) and 4.78 ± 0.1 (treatment: MLN4924 1 uM, 8 h).
Take DGHIDINEFLEAFRLVEKSCPEGD [PPEF2]: the protein stability index worked out at 4.67 ± 0.37 (treatment: DMSO) and 4.71 ± 0.17 (treatment: MLN4924 1 uM, 8 h).
Consider DGKLLWEQELYNNFVYNSPRGYFH [WASL], for which the protein stability index was determined as 2.07 ± 0.24 (treatment: DMSO) and 2.27 ± 0.41 (treatment: MLN4924 1 uM, 8 h).
Consider DGTAENGIHPLSSSEVDELIHKAD [PALM], for which the protein stability index by setting is: (treatment: DMSO) 5.38 ± 0.2; (treatment: MLN4924 1 uM, 8 h) 5.35 ± 0.42.
On to DGVKESSESTNTTIEDEDTKVRKQ [CAMK2A], for which the protein stability index by setting is: (treatment: DMSO) 5.65 ± 0.13; (treatment: MLN4924 1 uM, 8 h) 5.59 ± 0.29.
Regarding DHLTTVLYLQLAICSSLQNLEKTI [C8orf76], the protein stability index was determined as 3.21 ± 0.57 (treatment: DMSO) and 3.41 ± 0.35 (treatment: MLN4924 1 uM, 8 h).
Turning to DHVDLSLSCTLVPRSGEQAEGSPG [CDKN1A], the protein stability index is, setting by setting: (treatment: DMSO) 4.91 ± 0.17; (treatment: MLN4924 1 uM, 8 h) 5.08 ± 0.23.
Consider DIELGCSTPLMEAAQEGHLELVKY [ANKRD17], for which the protein stability index (treatment: DMSO) amounted to 4.03 ± 0.29 and the protein stability index (treatment: MLN4924 1 uM, 8 h) came to 4.18 ± 0.27.
In turn, DITAYLFGFFFGRTPLIKLSPKKT [CDS1] came in with a protein stability index (treatment: DMSO) of 3.11 ± 0.64 and a protein stability index (treatment: MLN4924 1 uM, 8 h) of 2.73 ± 0.46.
The corresponding values for DKCMVCGGDGSGCSKQSGSFRKFR [ADAMTS4] are 2.14 ± 0.11 and 3.25 ± 0.85.
Turning to DKITGQSLGYGFVNYSDPNDADKA [ELAVL3], the protein stability index runs as follows: (treatment: DMSO) 4.81 ± 0.24; (treatment: MLN4924 1 uM, 8 h) 4.82 ± 0.15.
For DLDFKHHNYKEMRQLMKVVNEMCP [CPXM2], in that order: 2.93 ± 0.21 and 2.66 ± 0.31.
As for DLEAVVPQNGSETGWARKGLGNTW [ATP23], the protein stability index is, setting by setting: (treatment: DMSO) 3.42 ± 0.2; (treatment: MLN4924 1 uM, 8 h) 3.38 ± 0.44.
In the case of DLHFKMFDVGGQRSERKKWIHCFE [GNAI1], the protein stability index runs as follows: (treatment: DMSO) 1.73 ± 0.25; (treatment: MLN4924 1 uM, 8 h) 2.64 ± 0.35.
For DLLCKTSHLSDTGISALVEIPKNC [WDR41], in that order: 2.8 ± 0.23 and 2.78 ± 0.34.
Take DLTSEDQIVLLKSSAIEVIMLRSN [VDR]: the protein stability index is 2.28 ± 0.21 (treatment: DMSO) and 2.05 ± 0.34 (treatment: MLN4924 1 uM, 8 h).
In turn, DMSWTCGNQDYKYRVSDVTKAGHS [VDR] had a protein stability index (treatment: DMSO) of 2.73 ± 0.15 and a protein stability index (treatment: MLN4924 1 uM, 8 h) of 2.74 ± 0.095.
Take DNDPRDLIGDFSKGYLFHTVAGKH [CDC25A]: the protein stability index amounted to 3.2 ± 0.13 (treatment: DMSO) and 3.41 ± 0.19 (treatment: MLN4924 1 uM, 8 h).
Take DPSVRLKIASLLGLLSKTAGFSPD [INTS4]: the protein stability index came to 2.57 ± 0.46 (treatment: DMSO) and 2.38 ± 0.26 (treatment: MLN4924 1 uM, 8 h).
In turn, DQEHNVAALKQAIKDKEAPLHVAQ [TEKT4] showed a protein stability index (treatment: DMSO) of 5.11 ± 0.19 and a protein stability index (treatment: MLN4924 1 uM, 8 h) of 5.18 ± 0.15.
Consider DQFDKDLPVYLKKDPAYFYGYVYF [DENND6A], for which the protein stability index came to 2.46 ± 0.71 (treatment: DMSO) and 2.19 ± 0.59 (treatment: MLN4924 1 uM, 8 h).
Turning to DQHRLYKQIKAGAYDFPSPEWDTV [CAMK2A], the protein stability index runs as follows: (treatment: DMSO) 3.29 ± 0.23; (treatment: MLN4924 1 uM, 8 h) 3.3 ± 0.24.
The corresponding values for DQLRSGSPPKSPRTTVHDKSAHQT [DNAJC4] are 5.26 ± 0.25 and 5.4 ± 0.14.
For DQPVMAVKTGEDGSNLDDAKGLAE [FANCE], the protein stability index by setting is: (treatment: DMSO) 5.44 ± 0.14; (treatment: MLN4924 1 uM, 8 h) 5.51 ± 0.26.
As to DQTGSKSSNLLDLKNPFFRYTGTT [CARM1], the protein stability index (treatment: DMSO) stood at 3.44 ± 0.18 and the protein stability index (treatment: MLN4924 1 uM, 8 h) was 3.28 ± 0.13.
Regarding DQVMEFSWSALWNITDETPDNCEM [ZER1], the protein stability index stood at 4.12 ± 0.27 (treatment: DMSO) and 4.04 ± 0.5 (treatment: MLN4924 1 uM, 8 h).
For DREVAIYSKESIIFGASSVDFSLS [GNB5], in that order: 2.98 ± 0.17 and 3.2 ± 0.27.
The corresponding values for DSLKFAVLMWLLTYVGALFNGLTL [RTN1] are 3.69 ± 1.4 and 3.378 ± 0.013.
Regarding DSTMRILSNLVQHILKKYYGNGMR [RTP4], the protein stability index is, setting by setting: (treatment: DMSO) 2.45 ± 0.73; (treatment: MLN4924 1 uM, 8 h) 2.46 ± 0.41.
As for DSYTATGYGRAPGGLSLHDYKLLK [JUNB], the protein stability index is 3.36 ± 0.24 (treatment: DMSO) and 3.39 ± 0.21 (treatment: MLN4924 1 uM, 8 h).
As for DTCRTQLVWLVRELVKSGVLGADG [INTS3], the protein stability index is, setting by setting: (treatment: DMSO) 2.51 ± 0.54; (treatment: MLN4924 1 uM, 8 h) 2.37 ± 0.24.

The values above are taken from the supplement of paper PMC10567573.
